B1: TPR t1 (parent)
chain: GACCAAUCUGCCCUCAGAGCUCGAGAACAUCUUCGGAUGCAGAGGAGGCAGGCUUCGGUGGCGCGAUAGCGCCAACGUCCUCAACCUCCAAUGCAUCCCACCACAUGAUGAUGCCUGAAGAGCCUUGGUUUUUUG

Variants of: B1
Assay: polymerase ribozyme fitness, log enrichment relative to wild type (log ratio); higher = more active; in vitro selection for triplet polymerase activity
Outline: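 Genotype fitness is the logarithm of its enrichment divided by wild-type enrichment, using inverse-variance-weighted averages of replicates. That logarithm is base 2. Enrichment was measured by Illumina sequencing of input and output libraries from one triplicate in vitro selection round, with frozen incubation at −7 °C, on PCR-built, transcribed mutant libraries of each subunit of a heterodimeric triplet polymerase ribozyme, retaining genotypes with ≥10 input reads and ≥1 read per output.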

Row | Variant | polymerase ribozyme fitness (log ratio)
1 | G52U C53G G60C C80A C94U | -2.08
2 | C49G C80U | -3.42
3 | G52U A74G A84G A121U | 0.168
4 | G51U C82G A83U U87A | -1.52
5 | A50U G61U C86U | -1.34
6 | C49U C56U C72G C101G | -3.7
7 | C49G G63C C80U U112A C124U | -5.99
8 | C49A U106A | -0.478
9 | C49A U106G | -2.41
10 | C49G C53A U59G C72U C86U U132A | -0.782
11 | A50G C53U G61C A90G G113A | -1.82
12 | A50C C72A | 0.00514
13 | G51C C64U | -3.9
14 | G52U U133G | -1.42
15 | A50C G117C | -3.5
16 | G52C C64U A84U C104A U112A | -1.62
17 | C49U U81C A95G C102G G110U G135U | -7.51
18 | G52U U54A G63A C115A | -0.839
19 | C49G C94G | -1.92
20 | C49G C88U C94U | -0.799
21 | C49A U54A C56U U112C | 1.59

Row | Variant | polymerase ribozyme fitness (log ratio)
22 | C49G C85A G113U | -4.81
23 | A50C G113U | -3.73
24 | G51U U87C C123A | -2.59
25 | G52A G69A A90C U116G G117C A118G | -6.12
26 | A50C G63A U81A | -0.41
27 | G52U C53A | -1.2
28 | G51U G57A C76A G110U G122U | -5.8
29 | G52A U55C C56A G57C | 0.195
30 | G51A C86U U87A G113C | -6.8
31 | C49U C64A U81A G93U C114G C123U | -6.8
32 | G51U U59A | -2.98
33 | A50G C88G G120A C124U U126C | 0.11
34 | G52U C64G C94U U106A A119G | -6.74
35 | G52A A74G G122A C124U | 0.026
36 | C49G U109A U112A | -5.85
37 | A50U C56A C82G U87G G117A U132A | -4.26
38 | C49U A84U C88A | -1.82
39 | G52U G57U G61U A111U | -6.65
40 | A50U G52A A84U G128U | -5.16
41 | G51A U87A C101A | -4.9
42 | G51U G71C | -5.37

Row | Variant | polymerase ribozyme fitness (log ratio)
43 | G52A C101U | 0.00367
44 | G52U C56U | -2.1
45 | A50G G120A | 0.658
46 | A50G C86A C115G | -2.42
47 | A50C C56G A121U | 1.61
48 | C49U G128A | -2.63
49 | C49U U106G | -2.35
50 | G51A G65C C114G | -6.09
51 | C49U G52U C56U G77U C101A | -2.69
52 | C49U A50C A111G | 0.0314
53 | A50C C62G | -2.66
54 | A50C C62A | -2.99
55 | G52A C124U | 0.924
56 | C49U G69U G117U | -2.25
57 | G51U G61A | -3.03
58 | C49U G63C | -0.762
59 | C53A A74U A95C G120A | -0.291
60 | A50U G117C G120C | -5.84
61 | C49G U81G | -3.01
62 | A50U C80A G122A G127C U129C | -5.15
63 | G52U U59C | -0.547

Row | Variant | polymerase ribozyme fitness (log ratio)
64 | G51U C62U C89U | -5
65 | G51A A66U C104G A105U A121G | -7.62
66 | C49U G110U | -2.6
67 | C49G G135U | -1.27
68 | G51U U112A A118U | -3.5
69 | C49U C53U C70U C79U | -4.07
70 | C53A A103U | -4.67
71 | A50U G58A U78C A103G U109G | -5.98
72 | G52U G60U C73U U96G A121G | -0.386
73 | A50U C64U | -0.813
74 | A50U C72U A74G | -1.22
75 | G52U G57C C97G C114A A119U | -6.02
76 | A50G U87G | 0.406
77 | A50U C62U C80U A84G A95U | -6.37
78 | C49U G60C A103C U112A C123G | -4.76
79 | A50U C101A | -2.09
80 | A50G C99U G110C | -7.74
81 | C49U G51U C62U C80A G113A | -4.27
82 | A50U C62U A91C | -3.88
83 | C49U G107A G120C U130G | -6.54

Reference: the RNAGym collection of RNA variant scans (doi:10.1073/pnas.2313332121)
